Test results from PMC9169775, “Structural conservation among variants of the SARS-CoV-2 spike postfusion bundle” (Proceedings of the National Academy of Sciences of the …, 2022).

Target: the molecule itself
Experiment: SDS-PAGE with or without boiling (SDS-resistant oligomer); purified scaffolded HR1HR2 bundle and scaffold alone, with or without boiling

B1: Dps4 from Nostoc punctiforme (NpDps4), scaffold alone (natural protein)
chain: ETQTLLRNFGNVYDNPVLLDRSVTAPVTEGFNVVLASFQALYLQYQKHHFVVEGSEFYSLHEFFNESYNQVQDHIHEIGERLDGLGGVPVATFSKLAELTCFEQESEGVYSSRQMVENDLAAEQAIIGVIRRQAAQAESLGDRGTRYLYEKILLKTEERAYHLSHFLAKDSLTLGFVQAA
notes: Dps4 from Nostoc punctiforme (NpDps4); Construct details in SI Appendix, Supplementary Notes; also called the scaffold alone; source: E. coli BL21(DE3), purified (Ni-NTA, SEC); copies: 12
- stoichiometry N: 12
